We go through one molecule from patent publication US20190367620A1 (Merck KGaA, published 2019).

Numbering of substitutions follows the chain as printed.

What all share (experiment): SPR; free energy change relative to wild-type D2
The target of experiment [1] is T1, FGFR1 D2 point mutant A59G (human, UniProt P11362 22-254).
T1 chain: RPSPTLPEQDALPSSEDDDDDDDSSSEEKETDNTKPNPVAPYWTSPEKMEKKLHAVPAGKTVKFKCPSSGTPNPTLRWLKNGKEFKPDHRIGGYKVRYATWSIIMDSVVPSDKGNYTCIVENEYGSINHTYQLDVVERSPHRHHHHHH
The method, then:
(§1) Binding affinities of anti-FGFR1 antibodies to FGFR1 were measured by Surface Plasmon Resonance (SPR) using a GE Healthcare BIAcore 4000 instrument as follows. Goat anti-human Fc antibody (Jackson ImmunoResearch Laboratories #109-005-098) was first immobilized on BIAcore carboxymethylated dextran CM5 chip using direct coupling to free amino groups following the procedure described by the manufacturer. Antibodies were then captured on the CM5 biosensor chip to achieve approximately 200 response units (RU). Binding measurements were performed using the running HBS-EP+ buffer. A 2-fold dilution series of His-tagged FGFR1 proteins were injected at a flow rate of 30 μl/min at 25° C. Association rates (kₒₙ, per mol/s) and dissociation rates (koff, per s) were calculated using a simple 1:1 Langmuir binding model (Biacore 4000 Evaluation Software). The equilibrium dissociation constant (KD, mol) was calculated as the ratio of koff/kₒₙ.
(§2) To obtain a finer, residue-level mapping of the epitope and to complement the HD exchange data, molecular modelling and manual inspection of the crystal structure of FGFR1 [(Beenken et al. 2012); PDB record 3OJV] was used to select solvent exposed residues within and around the epitope identified by HD exchange. The selected residues were mutated either to alanine (large to small) or to glycine if the selected residue was alanine. In total 35 point mutants were designed, expressed and purified in HEK cells, and tested for binding to mAb #A08 using surface plasmon resonance as described in Example 1.8. The affinity of the antibody for wild-type and each mutant was determined and used to calculate the contribution of each epitope residue to the binding energy.
(§3) Variant were compared to wild-type D2. The change in the Gibbs free energy of binding of mutant relative to the wild-type D2 construct (ΔΔGₘᵤₜ) was derived from the ratio of the wild-type and mutant KD.

Experiment [2] addresses T2, FGFR1 D2 point mutant G93A (human, UniProt P11362 22-254).
T2 chain: T1 chain with G59A, G93A
The protocol: as §1, §2, §3

In experiment [3] the target is T3, FGFR1 D2 point mutant P87A (human, UniProt P11362 22-254).
T3 chain: T1 chain with G59A, P87A
The protocol:
as §1, §2, §3

A further experiment has as its target T4, Human FGFR1 D2-His6 (human, UniProt P11362 22-254).
T4 construct: also called D2 domain; F3FR1c-D2
T4 sequence: T1 chain with G59A
The method, then:
as §1, §2, §3

Experiment [4] concerns the target T5, FGFR1 D2 point mutant P57A (human, UniProt P11362 22-254).
T5 chain: T1 chain with P57A, G59A
The method, then: as §1, §2, §3

The target of experiment [5] is T6, FGFR1 D2 point mutant K65A (human, UniProt P11362 22-254).
T6 chain: T1 chain with G59A, K65A
The protocol:
as §1, §2, §3

Experiment [6] deals with T7, FGFR1 D2 point mutant S107A (human, UniProt P11362 22-254).
T7 chain: T1 chain with G59A, S107A
The method, then:
as §1, §2, §3

Experiment [7] deals with T8, FGFR1 D2 point mutant H54A (human, UniProt P11362 22-254).
T8 chain: T1 chain with H54A, G59A
The method, then:
as §1, §2, §3

Experiment [8] addresses T9, FGFR1 D2 point mutant I104A (human, UniProt P11362 22-254).
T9 chain: T1 chain with G59A, I104A
The method, then:
as §1, §2, §3

Experiment [9] has as its target T10, FGFR1 D2 point mutant D106A (human, UniProt P11362 22-254).
T10 chain: T1 chain with G59A, D106A
The method, then: as §1, §2, §3

B1: mAb #A08 (antibody, V domains shown)
VH: EVQLQESGPGLVKPSGTLSLTCAVSGGSISSNNWWSWVRQPPGKGLEWIGEIYHSGSTSYNPSLKSRVTISVDKSKNQFSLKLNSVTAADTAVYYCARGTDWFDPWGQGTLVTVSS
VL: QAVLTQPPSVSVAPGQTARITCGGNNIGSESVHWYQQKPGQAPVLVVYDDSDRPSGIPERFSGSNSGNTATLTISRVEAGDEADYYCQVWDSTSDHRVFGGGTKLTVL
notes: Only variable domains are tied to the name mAb #A08 (hit); also called #A08 hit; mAb #08
Take B1: the ΔΔGmut in [1] is 1.78 kcal/mol; in experiment [2], 0.29 kcal/mol; in [3], 0.08 kcal/mol; with Human FGFR1 D2-His6 it was 0 kcal/mol; in experiment [4], 0.44 kcal/mol; in [5], -0.04 kcal/mol. Besides, the ΔΔGmut in experiment [6] turned out to be 0.13 kcal/mol; in experiment [7] it was 0.37 kcal/mol; in experiment [8], 0.93 kcal/mol; in experiment [9], 1.92 kcal/mol.
